First the molecules themselves.
B1: EY-6A (antibody, V domains shown)
VH: EVQLVESGGGVVQPGRSLRLSCAASAFTFSSYDMHWVRQAPGKGLEWVAVISYDGSNKYYADSVKGRFTISRDNSKNTLYLQMNSLRAEDTAVYYCAKDGGKLWVYYFDYWGQGTTVTVSS
VL: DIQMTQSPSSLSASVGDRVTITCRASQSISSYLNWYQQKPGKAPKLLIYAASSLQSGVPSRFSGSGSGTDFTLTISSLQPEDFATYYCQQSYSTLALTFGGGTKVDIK
notes: also called mAb EY-6A; source: ExpiCHO cells, transiently transfected, purified (rProtein A Sepharose); copies: 2 + 2
B2: IS-9A (antibody, V domains shown)
VH: QVQLVQSGAEVKKPGESLRISCKGSGYSFTNYWISWVRQMPGKGLEWMGRIDPSDSYINYSPSFQGHATISADKSISTAYLQWGSLKASDTAMYYCARGRNYLDSRGRFDYWGQGTLVTVSS
VL: DIVMTQSPSSLSASVGDRVTITCQASQDISNYLNWYQQKSGKAPKLLIYDASNLETGVPSRFSGSGSGTDFTFTISSLQPEDIATYYCQQYDSLGFTFGPGTKVEIR
notes: source: ExpiCHO cells, transiently transfected, purified (rProtein A Sepharose); copies: 2 + 2
B3: IY-2A (antibody, V domains shown)
VH: QVQLVEWGAGLLKPSETLSLTCAVYGGSFSGYYWSWIRQPPGKGLEWIGLINHSGSTNYNPSLKSRVTISLDTSKNQFSLKLTSVTAADTAVYYCARGLGIFGVVTLSDVWGQGTTVTVSS
VL: NFMLTQPHSVSESPGKTVTISCTGSSGSIASNYVQWYQQRPGSAPTTVIYEDNQRPSGVPDRFSGSIDSSSNSASLTISGLRTEDEADYYCQSYDSGIWVFGGGTKLTVL
notes: as for B2
B4: FP-12A (antibody, V domains shown)
VH: EVQLVESGGGVVQPGRSLRLSCAASGFTFSSYGMHWVRQAPGKGLEWVAVISYDGSNKYYADSVKGRFTISRDNSKNTLYLQMNSLRAEDTAVYYCANGFGEYYYYAMDVWGQGTTVTVSS
VL: B3 VL with Q39R, G65A, R82K, G97S, I98N
notes: copies: 2 + 2

The source of these data is article PMC9852238 (Nature Communications, 2023).

Substitutions are numbered along the chain they refer to.

In the first experiment the target is WIV1-CoV RBD-His8-SpyTag003 (Bat SARS-like coronavirus WIV1). The experiment in a line: ELISA. Particulars: both partners purified.
In the case of B1, the binding result is on record as “binds”.

On to B2, for which the binding result is “binds”.

Turning to B3, the binding result is listed as “binds”.

As for B4, the binding result was “no binding (tested: 50 nM)”.

In the next experiment the target is Rs4081-CoV RBD-His8-SpyTag003 (Bat SARS-like coronavirus Rs4081). The experiment in a line: ELISA. Particulars: both partners purified. (An ELISA detects its analyte on a solid surface through an enzyme-linked reagent.)
On to B1, for which the binding result is “binds”.

For the molecule B3, the binding result is on record as “binds”.

On to B4, for which the binding result is listed as “no binding (tested: 50 nM)”.

The next experiment deals with SHC014-CoV RBD-His8-SpyTag003 (Bat SARS-like coronavirus RsSHC014). The experiment in a line: ELISA. Particulars: both partners purified.
Turning to B1, the binding result is “binds”.

Take B2: the binding result is listed as “binds”.

With B3, the binding result is given as “binds”.

Turning to B4, the binding result is reported as “no binding (tested: 50 nM)”.

The next experiment concerns the target RaTG13-CoV RBD-His8-SpyTag003 (Bat coronavirus RaTG13). Description: ELISA. Particulars: both partners purified.
In the case of B1, the binding result is given as “binds”.

Turning to B2, the binding result was “binds”.

On to B3, for which the binding result is “binds”.

B4: the binding result was “no binding (tested: 50 nM)”.

The next experiment concerns the target T1, Yunnan2011 (Yun11)-CoV RBD-His8-SpyTag003 (Bat coronavirus Cp/Yunnan2011).
T1 construct: clade 2
The experiment in a line: ELISA. Particulars: both partners purified.
Consider B1, for which the binding result is listed as “binds”.

For the molecule B3, the binding result was “binds”.

Consider B4, for which the binding result is listed as “no binding (tested: 50 nM)”.

The next experiment deals with T2, Rf1-CoV RBD-His8-SpyTag003 (Bat SARS-like coronavirus Rf1).
T2 construct: clade 2
The experiment in a line: ELISA. Particulars: both partners purified.
As for B1, the binding result is “binds”.

As for B3, the binding result is recorded as “binds”.

Regarding B4, the binding result is reported as “no binding (tested: 50 nM)”.

A further experiment concerns the target pangolin17 (pang17)-CoV RBD-His8-SpyTag003 (pangolin17-CoV). Description: ELISA. The following applies: both partners purified.
As to B1, the binding result is on record as “binds”.

As for B3, the binding result is “binds”.

Regarding B4, the binding result is on record as “no binding (tested: 50 nM)”.

The target of a further experiment is BM48-31-CoV RBD-His8-SpyTag003 (Bat coronavirus BM48-31). Description: ELISA. Particulars: both partners purified.
As to B1, the binding result is reported as “binds”.

Consider B3, for which the binding result is “binds”.

Consider B4, for which the binding result is given as “no binding (tested: 50 nM)”.

The next experiment concerns the target SARS-CoV RBD-His8-SpyTag003 (SARS-CoV (GenBank ON131087, strain not …, UniProt P59594)). Description: ELISA. The following applies: both partners purified.
As to B4, the binding result was “no binding (tested: 50 nM)”.

For the next experiment, the target named is RmYN02-CoV RBD-His8-SpyTag003 (Bat coronavirus RmYN02). The experiment in a line: ELISA. The following applies: both partners purified.
B1: the binding result is given as “binds”.

Take B3: the binding result is “binds”.

Consider B4, for which the binding result is “no binding (tested: 50 nM)”.

Another experiment concerns the target T3, SARS-CoV-2 RBD (wild type), ELISA antigen (SARS-CoV-2, UniProt P0DTC2). The experiment in a line: cell-based or functional assay.
Conditions: not given
On to B2, for which the “IC50 of neutralisation of SARS-CoV-2 (potency of IS-9A)” value turned out to be 0.03 µg/mL.

A further experiment addresses T3, SARS-CoV-2 RBD (wild type), ELISA …. Description: ELISA. Particulars: both partners purified.
Turning to B1, the “OD in ELISA at 1 µg/ml” value was 1.81 OD.

As to B2, the “OD in ELISA at 1 µg/ml” value was 1.88 OD.

On to B3, for which the “OD in ELISA at 1 µg/ml” value was determined as 1.87 OD.

With B4, the “OD in ELISA at 1 µg/ml” value came out at 1.79 OD.

The target of the next experiment is SARS-CoV spike, ELISA antigen (SARS-CoV, strain not named (reference …, UniProt P59594)). Description: ELISA. The following applies: both partners purified.
As to B1, the “OD in ELISA at 1 µg/ml” value was 1.67 OD.

Take B2: the “OD in ELISA at 1 µg/ml” value is 1.83 OD.

As to B3, the “OD in ELISA at 1 µg/ml” value amounted to 1.78 OD.

For another experiment, the target named is SARS-CoV-2 spike (S) protein, ELISA antigen (SARS-CoV-2, Wuhan-Hu-1 (assumed), UniProt P0DTC2). The experiment in a line: ELISA. The following applies: both partners purified.
With B1, the “OD in ELISA at 1 µg/ml” value came to 1.75 OD.

Regarding B2, the “OD in ELISA at 1 µg/ml” value was determined as 1.78 OD.

B3: the “OD in ELISA at 1 µg/ml” value was determined as 1.8 OD.

In the case of B4, the “OD in ELISA at 1 µg/ml” value turned out to be 1.76 OD.
